Tests used:
[1] = substrate: O=c1c(O)c(-c2ccc(O)c(O)c2)oc2cc(O)cc(O)c12; assay: initial rates, absorbance, Michaelis-Menten fit; assay type: biochemical, Streptomyces coelicolor; conditions: 60°C, optimal pH for the substrate, 5% (v/v) DMSO
[2] = substrate: CCn1c(=NN=c2sc3cc(S(=O)(=O)O)ccc3n2CC)sc2cc(S(=O)(=O)O)ccc21; assay: initial rates, absorbance, Michaelis-Menten fit; assay type: biochemical, Streptomyces coelicolor; conditions: 60°C, optimal pH for the substrate
[3] = substrate: COc1cccc(OC)c1O; assay: initial rates, absorbance, Michaelis-Menten fit; assay type: biochemical, Streptomyces coelicolor; conditions: 60°C, optimal pH for the substrate
[4] = substrate: O=c1c(O)c(-c2ccc(O)cc2O)oc2cc(O)cc(O)c12; assay: initial rates, absorbance, Michaelis-Menten fit; assay type: biochemical, Streptomyces coelicolor; conditions: 60°C, optimal pH for the substrate
[5] = substrate: O=c1c(O)c(-c2cc(O)c(O)c(O)c2)oc2cc(O)cc(O)c12; assay: purified protein; conditions: 60°C, optimal pH for the substrate, 5% (v/v) DMSO

Row | Protein | Km [1] [µM] | Km ([2]; universal buffer) [µM] | Km ([3]; universal buffer) [µM] | Km ([4]; 5% (v/v) DMSO) [µM] | Km [5] [µM] | kcat [5] [s⁻¹] | Km [2] [µM] | kcat [2] [s⁻¹] | Km [3] [µM] | kcat [3] [s⁻¹] | Km ([4]; DMSO) [µM] | kcat ([4]; DMSO) [s⁻¹]
1 | small laccase (SLAC), SCO6712 (Streptomyces coelicolor A3(2)) (protein) AKGITARTAPAGGEVRHLKMYAEKLADGQMGYGFEKGKASVPGPLIEVNEGDTLHIEFTNTMDVRASLHVHGLDYEISSDGTAMNKSDVEPGGTRTYTWRTHKPGRRDDGTWRPGSAGYWHYHDHVVGTEHGTGGIRNGLYGPVIVRRKGDVLPDATHTIVFNDMTINNRKPHTGPDFEATVGDRVEIVMITHGEYYHTFHMHGHRWADNRTGILTGPDDPSRVIDNKITGPADSFGFQIIAGEGVGAGAWMYHCHVQSHSDMGMVGLFLVKKPDGTIPGYEPHEHGGATAKSGESGEPTGGAAAHEHEH | 1200 ± 400 | 800 ± 100 | 1100 ± 200 | 1500 ± 200 | 900 ± 300 | 8.1 ± 0.8 |  |  |  |  |  | 
2 | small laccase (SLAC), SCO6712 (Streptomyces coelicolor A3(2); S292A) (protein) AKGITARTAPAGGEVRHLKMYAEKLADGQMGYGFEKGKASVPGPLIEVNEGDTLHIEFTNTMDVRASLHVHGLDYEISSDGTAMNKSDVEPGGTRTYTWRTHKPGRRDDGTWRPGSAGYWHYHDHVVGTEHGTGGIRNGLYGPVIVRRKGDVLPDATHTIVFNDMTINNRKPHTGPDFEATVGDRVEIVMITHGEYYHTFHMHGHRWADNRTGILTGPDDPSRVIDNKITGPADSFGFQIIAGEGVGAGAWMYHCHVQAHSDMGMVGLFLVKKPDGTIPGYEPHEHGGATAKSGESGEPTGGAAAHEHEH |  |  |  |  |  |  | 2400 ± 200 | 11.1 ± 0.3 | 120 ± 20 | 0.93 ± 0.02 | 1600 ± 400 | 4.0 ± 0.4
